According to the supplement of paper PMC9732359:
± gives the uncertainty stated by the source.

Experiment: protein stability index of a GFP-peptide fusion (yeast GPS) (PSI 1-4); higher = more stable; sorted into four equal gates, so the index is relative within each strain
Summary of the method: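 Tiled yeast protein peptides of 17 residues were each joined downstream of GFP, on plasmids that also express Cherry. The pooled library was maintained in yeast, and mid-log cultures in leucine-free medium were sorted into four equal gates on the GFP/Cherry ratio. Plasmids from every gate were amplified by PCR and sequenced on Illumina, with barcodes linking reads to strains. The protein stability index of a peptide is its gate-number-weighted read frequency summed over the gates.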

Sequence	protein stability index (doa10∆)	protein stability index (pdr5∆)	protein stability index (san1∆)	protein stability index (ubr1∆)
SDDDNIGQSEELSDKEI [ISW2]	3.31 ± 0.1	3.44 ± 0.09	3.31 ± 0.08	3.41 ± 0.12
TKPSDLTIKDIVLGVKD [RPO21]	2.51 ± 0.085	2.15 ± 0.1	1.95 ± 0.15	2.83 ± 0.044
IDREGNARKVVGASVVV [RPS12]	2.65 ± 0.18	2.75 ± 0.25	–	3.31 ± 0.22
HVPEKKSTDLTPKGNES [MTR3]	2.97 ± 0.12	2.43 ± 0.13	2.66 ± 0.084	3.11 ± 0.096
LKDIVGQTSRTVTPAPN [ITC1]	2.97 ± 0.064	3 ± 0.041	2.9 ± 0.049	2.95 ± 0.044
IALNLDTTVNDCLDKLL [SNF2]	2.54 ± 0.14	3.06 ± 0.14	2.65 ± 0.1	2.9 ± 0.073
AKAKRRHTTGTGRMRYL [RPL37A]	3.14 ± 0.14	3.22 ± 0.083	2.99 ± 0.16	3.62 ± 0.16
SSENNQIILAYIKYNIL [SRP68]	3.06 ± 0.065	2.82 ± 0.074	2.92 ± 0.076	2.88 ± 0.062
SKSYTPRKLVLSSGENR [SMC4]	1.65 ± 0.03	1.82 ± 0.041	1.93 ± 0.056	1.7 ± 0.037
DYSINSRYEPKVFDCGD [PRE7]	2.73 ± 0.076	2.59 ± 0.053	2.9 ± 0.068	2.59 ± 0.063
IASTLGPSAMRLSRCIR [RPC82]	1.84 ± 0.089	2.46 ± 0.08	1.81 ± 0.083	2.4 ± 0.055
AINVFPEGYKAKSISTS [RPO31]	2.03 ± 0.05	1.8 ± 0.057	2.27 ± 0.07	2.31 ± 0.059
LFIGLFTRPLFVLLEIE [YCS4]	1.82 ± 0.092	1.98 ± 0.083	2.11 ± 0.15	1.61 ± 0.093
GVITVHNVFSKEQTIQL [RPN14]	2.57 ± 0.14	2.63 ± 0.19	2.95 ± 0.079	3.12 ± 0.14
VPQSEETRAELSQLCAV [RPO21]	2.37 ± 0.067	3.02 ± 0.065	2.79 ± 0.067	3.09 ± 0.061
KIATRGVMLWKEFDETI [FAS1]	3.02 ± 0.22	2.94 ± 0.22	–	2.94 ± 0.15
EEAKSVLPAATKKKSKF [ARP9]	2.1 ± 0.062	2.25 ± 0.043	2.04 ± 0.06	2.31 ± 0.036
KDAVDYSKIPNILSNKP [RRP6]	1.51 ± 0.096	1.97 ± 0.093	1.58 ± 0.21	1.58 ± 0.049
TRVRLPSGAKKVISSDA [RPL2A]	3.25 ± 0.092	3.27 ± 0.084	3.26 ± 0.049	3.26 ± 0.072
GWYHSGPKLRASDLKIN [RPN8]	1.57 ± 0.036	1.95 ± 0.035	1.59 ± 0.058	2.06 ± 0.035
SAAASESDVAKQLASFG [RPL16B]	2.76 ± 0.048	2.83 ± 0.042	2.44 ± 0.057	2.42 ± 0.027
LLTSAGCKNGSFTLLNQ [NUT1]	2.21 ± 0.12	2.32 ± 0.067	2.3 ± 0.28	2.68 ± 0.12
ETTTQFKATHILDFGPG [FAS1]	2.44 ± 0.081	2 ± 0.094	2.16 ± 0.084	2.25 ± 0.054
DKKQQTIDEQSQISPEK [RPN1]	3.29 ± 0.11	3.46 ± 0.11	3.4 ± 0.063	3.26 ± 0.046
SNEFVPNTSDNNNNSNN [SWI1]	2.59 ± 0.1	2.79 ± 0.11	2.71 ± 0.095	2.88 ± 0.066
VGRQDPKKHLSETADET [RPN11]	3.17 ± 0.078	2.96 ± 0.09	3.51 ± 0.066	2.92 ± 0.078
